The nature of the series: collision cross section of modified peptide (TIMS, N2, iRT-aligned); higher = larger / more extended gas-phase ion. In short, it runs like this:
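Collision cross section values rest on the Mason-Schamp equation applied to calibrated, run-aligned mobility data from synthetic peptides. Mobility (1/K0) was calibrated with three reference ions and aligned per run to the median iRT peptide deviation, and 1–3 technical replicates of the most abundant feature per charge state were averaged. Data came from a timsTOF Pro/HT in dda-PASEF mode (nitrogen, ~2.4 mbar) after a 120-min nanoflow C18 gradient at 60 °C.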

The mark [1] stands for this setting: charge state: 3, modification: Glutarylation.
The mark [2] stands for this setting: charge state: 2, modification: Crotonyl.
[3] abbreviates: charge state: 2, modification: Acetyl (K).
The mark [4] stands for this setting: charge state: 3, modification: Methyl (R).
[5] abbreviates: charge state: 2, modification: Butyryl.
[6] abbreviates: charge state: 3, modification: Butyryl.
Setting [7] is: charge state: 2, modification: Nitro (Y).
Where [8] appears, read: charge state: 2, modification: Biotin.
[9] abbreviates: charge state: 3, modification: Biotin.
Setting [10] is: charge state: 2, modification: HexNAc (ST).
[11] abbreviates: charge state: 2, modification: Dimethyl (K).
[12] abbreviates: charge state: 3, modification: Dimethyl (K).
[13] abbreviates: charge state: 2, modification: Succinyl.
The mark [14] stands for this setting: charge state: 3, modification: Succinyl.
Setting [15] is: charge state: 2, modification: Glutarylation.
Setting [16] is: charge state: 2, modification: Methyl (K).
[17] abbreviates: charge state: 3, modification: Methyl (K).
[18] abbreviates: charge state: 2, modification: Formyl.
The mark [19] stands for this setting: charge state: 2, modification: Trimethyl (K).
Setting [20] is: charge state: 3, modification: Trimethyl (K).
[21] abbreviates: charge state: 2, modification: hydroxyisobutyryl.
Setting [22] is: charge state: 3, modification: hydroxyisobutyryl.

± gives the standard deviation.

Take “YEQEHAAIQDKLFQVAK [_YEQEHAAIQDK(Gluratylation)LFQVAK_]”: the collision cross section under setting [1] is on record as 519.4 ± 1.2 Å².

Turning to “SITHSTVGSKGEK [_SITHSTVGSK(Propionyl)GEK_]”, the collision cross section is on record as 395.17 ± 0.94 Å² (charge state: 2, modification: Propionyl) and 443.25 ± 0.59 Å² (charge state: 3, modification: Propionyl). “GGGGGRGGLHDFR [_GGGGGR(Citrullination (R))GGLHDFR_]” yielded a collision cross section (charge state: 2, modification: Citrullination (R)) of 380.63 ± 2.7 Å² and a collision cross section (charge state: 3, modification: Citrullination (R)) of 438.48 ± 1.8 Å².

Sequence FDDTNPEKEEAK [_FDDTNPEK(Crotonyl)EEAK_] showed a collision cross section under setting [2] of 399.58 ± 0.79 Å² and a collision cross section (charge state: 3, modification: Crotonyl) of 439.29 Å². In turn, GEVQVSDKER [_GEVQVSDK(Acetyl (K))ER_] showed a collision cross section under setting [3] of 356.44 ± 0.96 Å². Under setting [4], “PRTPTAPAVNLAGAR [_PR(Methyl (R))TPTAPAVNLAGAR_]” returned a collision cross section of 486.43 ± 2.3 Å². As to “LQDVSGQLSSSKK [_LQDVSGQLSSSK(Butyryl)K_]”, the collision cross section under setting [5] was 401.39 ± 0.74 Å² and the collision cross section under setting [6] is 476.47 ± 3.2 Å². In the case of “IYELAAGGTAVGTGLNTR [_IY(Nitro (Y))ELAAGGTAVGTGLNTR_]”, the collision cross section under setting [7] was 447.13 ± 1.1 Å². With “VLTANSNPSSPSAAKR [_VLTANSNPSSPSAAK(Biotin)R_]”, the collision cross section is 443.24 ± 0.79 Å² under setting [8] and 547.09 ± 3.1 Å² under setting [9]. Under setting [10], “LDINTNTYTSQDLK [_LDINTNTYTS(HexNAc (ST))QDLK_]” yielded a collision cross section of 444.16 ± 0.035 Å².

“VGVEVPDVNIEGPEGKLK [_VGVEVPDVNIEGPEGK(Crotonyl)LK_]” had a collision cross section under setting [2] of 462.4 ± 1.4 Å². For VNALKNLQVK [_VNALK(Dimethyl (K))NLQVK_], the collision cross section under setting [11] was found to be 371.74 ± 0.57 Å² and the collision cross section under setting [12] was determined as 421.1 Å². LEKTIDDLEEK [_LEK(Crotonyl)TIDDLEEK_] displayed a collision cross section under setting [2] of 409.2 ± 1.1 Å². For “GFALVGVGSEASSKK [_GFALVGVGSEASSK(Acetyl (K))K_]”, the collision cross section runs as follows: under setting [3], 429.07 ± 17 Å²; (charge state: 3, modification: Acetyl (K)) 499.93 ± 0.98 Å². FTEYETQVK [_FTEY(Phospho (Y))ETQVK_] showed a collision cross section (charge state: 2, modification: Phospho (Y)) of 359.15 ± 0.75 Å².

Sequence GAEKTEVAEPR [_GAEK(Biotin)TEVAEPR_] returned a collision cross section under setting [8] of 393.63 Å². As to LLFSNTAAQKLR [_LLFSNTAAQK(Succinyl)LR_], the collision cross section reads like this: under setting [13], 404.93 ± 0.55 Å²; under setting [14], 482.98 ± 3.3 Å². For “YIEIYVQKVNPSR [_YIEIYVQK(Dimethyl (K))VNPSR_]”, the collision cross section runs as follows: under setting [11], 441.4 ± 1.2 Å²; under setting [12], 503.81 ± 1.6 Å². Regarding “VPGALAAAKAAK [_VP(Hydroxyproline)GALAAAKAAK_]”, the collision cross section is, setting by setting: (charge state: 2, modification: Hydroxyproline) 368.8 ± 0.56 Å²; (charge state: 3, modification: Hydroxyproline) 444.57 ± 2.8 Å². For the sequence “DLGKFQVATDALK [_DLGK(Gluratylation)FQVATDALK_]”, under setting [15], the collision cross section amounted to 414.3 ± 0.6 Å². “SKLLFSNTAAQK [_SK(Acetyl (K))LLFSNTAAQK_]” had a collision cross section under setting [3] of 396.66 ± 1.3 Å².

For the sequence “ISALQGKLSK [_ISALQGK(Gluratylation)LSK_]”, under setting [15], the collision cross section was determined as 358.52 ± 0.083 Å².

Regarding “ITLSKHQNVQLPR [_ITLSK(Malonyl)HQNVQLPR_]”, the collision cross section (charge state: 3, modification: Malonyl) was 478.94 ± 1.8 Å². In the case of PSVSTKLISK [_PSVSTK(Methyl (K))LISK_], the collision cross section reads like this: under setting [16], 356.57 ± 0.35 Å²; under setting [17], 424.71 ± 5.3 Å². For “SSGPGGQNVNKVNSK [_SSGPGGQNVNK(Succinyl)VNSK_]”, the collision cross section was 404.66 ± 0.55 Å² under setting [13] and 443.1 ± 4 Å² under setting [14]. In turn, SLFFGGKGAPLQR [_SLFFGGK(Formyl)GAPLQR_] yielded a collision cross section under setting [18] of 399.67 ± 0.55 Å². “DVNAAIAAIKTK [_DVNAAIAAIK(Trimethyl (K))TK_]”: the collision cross section reads like this: under setting [19], 402.42 ± 1.1 Å²; under setting [20], 465.71 ± 2.2 Å². As for LVFDEYLK [_LVFDEY(Nitro (Y))LK_], the collision cross section under setting [7] amounted to 355.63 ± 0.17 Å².

Take SLKLNTAEDAK [_SLK(Methyl (K))LNTAEDAK_]: the collision cross section reads like this: under setting [16], 364.71 ± 0.36 Å²; under setting [17], 470.64 ± 4.7 Å².

Sequence “ASAISIKLGSSK [_ASAISIK(Acetyl (K))LGSSK_]” registered a collision cross section under setting [3] of 368.59 ± 0.51 Å². “KITESVAETAQTIK [_KITESVAETAQT(HexNAc (ST))IK_]”: the collision cross section reads like this: under setting [10], 451.91 ± 0.56 Å²; (charge state: 3, modification: HexNAc (ST)) 504.11 ± 1.1 Å². For “ITASLCDLKSR [_ITASLCDLK(hydroxyisobutyryl)SR_]”, under setting [21], the collision cross section turned out to be 395.08 ± 0.81 Å². Take ASNAAVKLAESK [_ASNAAVK(Crotonyl)LAESK_]: the collision cross section under setting [2] was determined as 375.99 ± 0.26 Å². Under setting [14], “YEQEHAAIQDKLFQVAK [_YEQEHAAIQDK(Succinyl)LFQVAK_]” yielded a collision cross section of 518.31 ± 1.6 Å². For the sequence LDHLAEKFR [_LDHLAEK(Methyl (K))FR_], the collision cross section reads like this: under setting [16], 368.51 ± 0.5 Å²; under setting [17], 450.7 ± 4.8 Å². The sequence LLFSNTAAQKLR [_LLFSNTAAQK(Formyl)LR_] came in with a collision cross section under setting [18] of 395.38 ± 0.55 Å². For “GTVPDDAVEALADSLGKK [_GTVPDDAVEALADSLGK(Gluratylation)K_]”, the collision cross section is, setting by setting: under setting [15], 452.53 ± 1.2 Å²; under setting [1], 538.57 ± 1.8 Å². Take KYEEIDNAPEER [_K(Butyryl)YEEIDNAPEER_]: the collision cross section turned out to be 413.71 ± 1.1 Å² under setting [5] and 492.73 ± 3.5 Å² under setting [6]. Take “SNEEGSEEKGPEVR [_SNEEGSEEK(Trimethyl (K))GPEVR_]”: the collision cross section is, setting by setting: under setting [19], 400.43 Å²; under setting [20], 464.15 ± 1.8 Å². Consider LDHLAEKFR [_LDHLAEK(Malonyl)FR_], for which the collision cross section (charge state: 2, modification: Malonyl) came out at 366.99 ± 1.7 Å². As to ILDLKTGTVK [_ILDLK(Dimethyl (K))TGTVK_], the collision cross section under setting [11] was found to be 355.49 ± 0.51 Å². For the sequence ASAISIKLGSSK [_ASAISIK(Butyryl)LGSSK_], the collision cross section under setting [5] amounted to 375.24 ± 1.9 Å².

As for TLDEILQEKK [_TLDEILQEK(Dimethyl (K))K_], the collision cross section is given as 379.42 ± 0.37 Å² under setting [11] and 430.63 ± 2 Å² under setting [12].

“VGVEVPDVNIEGPEGKLK [_VGVEVPDVNIEGPEGK(Dimethyl (K))LK_]”: the collision cross section by setting is: under setting [11], 456.47 ± 2.5 Å²; under setting [12], 540.33 ± 0.77 Å².

Regarding “DAEAAEATAEGALKAEK [_DAEAAEATAEGALK(hydroxyisobutyryl)AEK_]”, the collision cross section reads like this: under setting [21], 435.11 ± 0.29 Å²; under setting [22], 547.8 ± 2.1 Å². For LQEKVESAQSEQK [_LQEK(Biotin)VESAQSEQK_], the collision cross section is 433.03 ± 0.23 Å² under setting [8] and 526.98 ± 0.34 Å² under setting [9]. In the case of “YEQEHAAIQDKLFQVAK [_YEQEHAAIQDK(Biotin)LFQVAK_]”, the collision cross section under setting [9] stood at 538 ± 1.6 Å².

Under setting [10], MTLSVLSR [_MTLS(HexNAc (ST))VLSR_] yielded a collision cross section of 352.44 ± 0.8 Å².

With TTEETSKPK [_TTEETSK(Methyl (K))PK_], the collision cross section under setting [16] worked out at 342.29 ± 0.79 Å² and the collision cross section under setting [17] was determined as 431.66 Å². Regarding “GADFLVTEVENGGSLGSKK [_GADFLVTEVENGGSLGSK(Gluratylation)K_]”, the collision cross section by setting is: under setting [15], 481.44 ± 2 Å²; under setting [1], 556.42 Å². Turning to LGILPVGRGK [_LGILPVGR(Methyl (R))GK_], the collision cross section worked out at 355.35 ± 1.4 Å² (charge state: 2, modification: Methyl (R)) and 437.92 Å² under setting [4]. Regarding “GFCFITYTDEEPVKK [_GFCFITYTDEEPVK(Methyl (K))K_]”, the collision cross section was found to be 460.43 ± 0.33 Å² under setting [16] and 513.09 ± 2.7 Å² under setting [17]. Regarding “DLGKFQVATDALK [_DLGK(Trimethyl (K))FQVATDALK_]”, the collision cross section is, setting by setting: under setting [19], 414.1 ± 0.6 Å²; under setting [20], 492.6 ± 1.8 Å². For the sequence “ATVASSTQKFQDLGVK [_ATVASSTQK(Biotin)FQDLGVK_]”, the collision cross section reads like this: under setting [8], 460.81 ± 1.3 Å²; under setting [9], 516.43 ± 0.96 Å². Regarding “DASTLQSQKAEGTGDAK [_DASTLQSQK(hydroxyisobutyryl)AEGTGDAK_]”, the collision cross section is on record as 441.13 ± 0.33 Å² under setting [21] and 514.99 ± 2.1 Å² under setting [22].

“DVNAAIAAIKTK [_DVNAAIAAIK(GlyGly (K))TK_]” came in with a collision cross section (charge state: 2, modification: GlyGly (K)) of 401.67 ± 0.99 Å² and a collision cross section (charge state: 3, modification: GlyGly (K)) of 465.81 ± 1.1 Å².

With “GEVGAGAGPGAQAGPSAKR [_GEVGAGAGPGAQAGPSAK(Dimethyl (K))R_]”, the collision cross section under setting [11] is reported as 422.35 ± 0.53 Å² and the collision cross section under setting [12] stood at 490.58 ± 1.6 Å².

The values above are taken from the supplement of paper PMC10598134.
